In the supplement of paper PMC9116672:
± gives the standard deviation of the averaged measurements or the uncertainty stated by the source.

What was measured:
[1] = duplex melting temperature (HRM, EvaGreen); higher = more stable duplex
Experimental: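 Listed DNA strand annealed 1:1 with its complementary strand (95 °C 5 min, 0.1 °C/s to 20 °C). Melted in 1x NNE buffer (500 mM NaCl, 10 mM Na2HPO4, 1 mM EDTA, pH 7.0) with 1x EvaGreen on a LightCycler96 (37 to 97 °C, 0.1 °C/s). Tm is the peak of -dF/dT at the stated total duplex concentration; 4 replicates are averaged. PS oligos are non-stereospecific (Rp/Sp mixtures).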

[2] = duplex formation free energy ΔG50 (Van't Hoff fit of HRM Tm); higher = less stable duplex; details: temperature for dG: 50 °C, NaCl: 500 mM (unadjusted)
Experimental: (§1)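 Duplex of the listed DNA strand with its complement, in 1x NNE buffer (500 mM NaCl, pH 7.0) with 1x EvaGreen. ΔH and ΔS come from a Van't Hoff linear fit of 1/Tm against ln(CT/4) over 1-20 uM, using HRM Tm values.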

[3] = duplex formation enthalpy ΔH (Van't Hoff fit of HRM Tm); higher = less exothermic duplex formation; details: temperature for dG: 50 °C, NaCl: 500 mM (unadjusted)
Experimental: as §1

[4] = duplex formation entropy ΔS (Van't Hoff fit of HRM Tm); higher = smaller entropy loss on duplex formation; details: temperature for dG: 50 °C, NaCl: 500 mM (unadjusted)
Experimental: as §1

[5] = duplex concentration 1 µM, backbone: PS-PO (listed strand fully phosphorothioate, complement phosphodiester)
[6] = duplex concentration 1 µM, backbone: PS-PS (both strands fully phosphorothioate)
[7] = duplex concentration 2.5 µM, backbone: PO-PO (both strands phosphodiester DNA)
[8] = duplex concentration 2.5 µM, backbone: PS-PO (listed strand fully phosphorothioate, complement phosphodiester)
[9] = duplex concentration 2.5 µM, backbone: PS-PS (both strands fully phosphorothioate)
[10] = duplex concentration 5 µM, backbone: PO-PO (both strands phosphodiester DNA)
[11] = duplex concentration 5 µM, backbone: PS-PO (listed strand fully phosphorothioate, complement phosphodiester)
[12] = duplex concentration 5 µM, backbone: PS-PS (both strands fully phosphorothioate)
[13] = duplex concentration 7.5 µM, backbone: PO-PO (both strands phosphodiester DNA)
[14] = duplex concentration 7.5 µM, backbone: PS-PO (listed strand fully phosphorothioate, complement phosphodiester)
[15] = duplex concentration 7.5 µM, backbone: PS-PS (both strands fully phosphorothioate)
[16] = duplex concentration 10 µM, backbone: PO-PO (both strands phosphodiester DNA)
[17] = duplex concentration 10 µM, backbone: PS-PO (listed strand fully phosphorothioate, complement phosphodiester)
[18] = duplex concentration 10 µM, backbone: PS-PS (both strands fully phosphorothioate)
[19] = duplex concentration 15 µM, backbone: PO-PO (both strands phosphodiester DNA)
[20] = duplex concentration 15 µM, backbone: PS-PO (listed strand fully phosphorothioate, complement phosphodiester)
[21] = duplex concentration 15 µM, backbone: PS-PS (both strands fully phosphorothioate)
[22] = duplex concentration 20 µM, backbone: PO-PO (both strands phosphodiester DNA)
[23] = duplex concentration 20 µM, backbone: PS-PO (listed strand fully phosphorothioate, complement phosphodiester)
[24] = duplex concentration 20 µM, backbone: PS-PS (both strands fully phosphorothioate)
[25] = backbone: PO-PO (both strands phosphodiester DNA)
[26] = backbone: PS-PO (listed strand fully phosphorothioate, complement phosphodiester)
[27] = backbone: PS-PS (both strands fully phosphorothioate)
[28] = duplex concentration 1 µM, backbone: PO-PO (both strands phosphodiester DNA)

Sequence | duplex melting temperature [1, 5] | duplex melting temperature [1, 6] | duplex melting temperature [1, 7] | duplex melting temperature [1, 8] | duplex melting temperature [1, 9] | duplex melting temperature [1, 10] | duplex melting temperature [1, 11] | duplex melting temperature [1, 12] | duplex melting temperature [1, 13] | duplex melting temperature [1, 14] | duplex melting temperature [1, 15] | duplex melting temperature [1, 16] | duplex melting temperature [1, 17] | duplex melting temperature [1, 18] | duplex melting temperature [1, 19] | duplex melting temperature [1, 20] | duplex melting temperature [1, 21] | duplex melting temperature [1, 22] | duplex melting temperature [1, 23] | duplex melting temperature [1, 24] | duplex formation free energy ΔG50 [2, 25] | duplex formation free energy ΔG50 [2, 26] | duplex formation free energy ΔG50 [2, 27] | duplex formation enthalpy ΔH [3, 25] | duplex formation enthalpy ΔH [3, 26] | duplex formation enthalpy ΔH [3, 27] | duplex formation entropy ΔS [4, 25] | duplex formation entropy ΔS [4, 26] | duplex formation entropy ΔS [4, 27] | duplex melting temperature [1, 28]
CGTGCAGCACTACTTG | 56.81 ± 0.29 °C | 50.09 ± 0.18 °C | 67.58 ± 0.38 °C | 60.02 ± 0.13 °C | 53.82 ± 0.069 °C | 69.83 ± 0.28 °C | 62.35 ± 0.23 °C | 56.17 ± 0.085 °C | 71.17 ± 0.15 °C | 63.49 ± 0.13 °C | 57.1 ± 0.12 °C | 72.2 ± 0.18 °C | 64.33 ± 0.093 °C | 57.92 ± 0.08 °C | 73.4 ± 0.13 °C | 65.6 ± 0.099 °C | 59.07 ± 0.11 °C | 74.39 ± 0.17 °C | 66.47 ± 0.25 °C | 59.74 ± 0.13 °C | -12.8 ± 0.17 kcal/mol | -11.31 ± 0.067 kcal/mol | -9.892 ± 0.075 kcal/mol | -71.3 ± 2.6 kcal/mol | -71.3 ± 1.7 kcal/mol | -67.6 ± 3.5 kcal/mol | -181 ± 7.5 cal/mol/K | -186 ± 5 cal/mol/K | -179 ± 11 cal/mol/K | 
TCTACACCGCGA |  | 41.3 ± 0.82 °C |  |  | 45.5 ± 0.56 °C | 62.45 ± 0.36 °C | 57 °C | 48.18 ± 0.13 °C | 64.36 ± 0.22 °C | 58.2 ± 0.61 °C | 49.78 ± 0.41 °C | 65.78 ± 0.25 °C | 60.1 ± 0.43 °C | 52 ± 0.91 °C | 67.547 ± 0.058 °C | 61.71 ± 0.24 °C | 54.2 ± 1.4 °C | 68.14 ± 0.13 °C | 63.08 ± 0.18 °C |  | -10.8 ± 0.19 kcal/mol | -9.65 ± 0.1 kcal/mol | -8.523 ± 0.038 kcal/mol | -54.3 ± 4.1 kcal/mol | -46.4 ± 3.2 kcal/mol | -44.4 ± 2.7 kcal/mol | -135 ± 12 cal/mol/K | -114 ± 9.5 cal/mol/K | -111 ± 8.4 cal/mol/K | 
GTGGTACAAATGCGACC | 58.59 ± 0.28 °C | 49.91 ± 0.4 °C | 68.46 ± 0.35 °C | 61.19 ± 0.13 °C | 52.86 ± 0.053 °C | 70.27 ± 0.1 °C | 63.12 ± 0.081 °C | 54.891 ± 0.046 °C | 71.34 ± 0.084 °C | 64.14 ± 0.075 °C | 55.93 ± 0.084 °C | 72.06 ± 0.12 °C | 65.04 ± 0.1 °C | 56.63 ± 0.12 °C | 73.205 ± 0.062 °C | 66.133 ± 0.0075 °C | 57.534 ± 0.054 °C | 74.14 ± 0.12 °C | 66.91 ± 0.08 °C | 58.25 ± 0.083 °C | -13.92 ± 0.12 kcal/mol | -11.87 ± 0.036 kcal/mol | -9.816 ± 0.052 kcal/mol | -88 ± 1.9 kcal/mol | -80.9 ± 0.88 kcal/mol | -77.3 ± 2.9 kcal/mol | -229 ± 5.5 cal/mol/K | -214 ± 2.6 cal/mol/K | -209 ± 8.9 cal/mol/K | 66.7 °C
CGGTGCTTTTGGTAGC | 55.5 °C | 48.49 ± 0.47 °C | 66.24 ± 0.63 °C | 57.98 ± 0.26 °C | 51.59 ± 0.36 °C | 68.2 ± 0.57 °C | 60.12 ± 0.16 °C | 53.89 ± 0.15 °C | 69.42 ± 0.55 °C | 61.35 ± 0.16 °C | 55.11 ± 0.14 °C | 70.49 ± 0.27 °C | 62.11 ± 0.17 °C | 55.86 ± 0.081 °C | 71.77 ± 0.14 °C | 63.256 ± 0.027 °C | 56.93 ± 0.08 °C | 72.89 ± 0.21 °C | 64.025 ± 0.015 °C | 57.7 ± 0.2 °C | -13 ± 0.28 kcal/mol | -11.01 ± 0.054 kcal/mol | -9.497 ± 0.038 kcal/mol | -78.9 ± 5 kcal/mol | -75.7 ± 1.6 kcal/mol | -69.1 ± 2.4 kcal/mol | -204 ± 15 cal/mol/K | -200 ± 4.7 cal/mol/K | -184 ± 7.3 cal/mol/K | 64.53 ± 0.35 °C
TATTCTGCCAATGGAAC | 52.9 °C | 45.3 ± 0.74 °C | 63.72 ± 0.46 °C | 56.19 ± 0.12 °C | 48.29 ± 0.081 °C | 65.46 ± 0.21 °C | 58.32 ± 0.085 °C | 50.06 ± 0.16 °C | 66.751 ± 0.054 °C | 59.47 ± 0.085 °C | 51.303 ± 0.046 °C | 67.63 ± 0.082 °C | 60.21 ± 0.12 °C | 52.24 ± 0.13 °C | 68.883 ± 0.048 °C | 61.27 ± 0.062 °C | 53.39 ± 0.22 °C | 69.87 ± 0.1 °C | 62.27 ± 0.081 °C | 54.28 ± 0.14 °C | -12.43 ± 0.11 kcal/mol | -10.59 ± 0.059 kcal/mol | -8.755 ± 0.02 kcal/mol | -79.9 ± 2.2 kcal/mol | -75.2 ± 2 kcal/mol | -69.8 ± 2.2 kcal/mol | -209 ± 6.6 cal/mol/K | -200 ± 6.1 cal/mol/K | -189 ± 6.7 cal/mol/K | 61.28 ± 0.28 °C
